Blank lines part the entries; values can stand above or below the binder they belong to.
B1: Sth1, the large ATPase subunit of the RSC remodeler complex (natural protein, S. cerevisiae)
chain: MLQEQSELMSTVMNNTPTTVAALAAVAAASETNGKLGSEEQPEITIPKPRSSAQLEQLLYRYRAIQNHPKENKLEIKAIEDTFRNISRDQDIYETKLDTLRKSIDKGFQYDEDLLNKHLVALQLLEKDTDVPDYFLDLPDTKNDNTTAIEVDYSEKKPIKISADFNAKAKSLGLESKFSNATKTALGDPDTEIRISARISNRINELERLPANLGTYSLDDCLEFITKDDLSSRMDTFKIKALVELKSLKLLTKQKSIRQKLINNVASQAHHNIPYLRDSPFTAAAQRSVQIRSKVIVPQTVRLAEELERQQLLEKRKKERNLHLQKINSIIDFIKERQSEQWSRQERCFQFGRLGASLHNQMEKDEQKRIERTAKQRLAALKSNDEEAYLKLLDQTKDTRITQLLRQTNSFLDSLSEAVRAQQNEAKILHGEEVQPITDEEREKTDYYEVAHRIKEKIDKQPSILVGGTLKEYQLRGLEWMVSLYNNHLNGILADEMGLGKTIQSISLITYLYEVKKDIGPFLVIVPLSTITNWTLEFEKWAPSLNTIIYKGTPNQRHSLQHQIRVGNFDVLLTTYEYIIKDKSLLSKHDWAHMIIDEGHRMKNAQSKLSFTISHYYRTRNRLILTGTPLQNNLPELWALLNFVLPKIFNSAKTFEDWFNTPFANTGTQEKLELTEEETLLIIRRLHKVLRPFLLRRLKKEVEKDLPDKVEKVIKCKLSGLQQQLYQQMLKHNALFVGAGTEGATKGGIKGLNNKIMQLRKICNHPFVFDEVEGVVNPSRGNSDLLFRVAGKFELLDRVLPKFKASGHRVLMFFQMTQVMDIMEDFLRMKDLKYMRLDGSTKTEERTEMLNAFNAPDSDYFCFLLSTRAGGLGLNLQTADTVIIFDTDWNPHQDLQAQDRAHRIGQKNEVRILRLITTDSVEEVILERAMQKLDIDGKVIQAGKFDNKSTAEEQEAFLRRLIESETNRDDDDKAELDDDELNDTLARSADEKILFDKIDKERMNQERADAKAQGLRVPPPRLIQLDELPKVFREDIEEHFKKEDSEPLGRIRQKKRVYYDDGLTEEQFLEAVEDDNMSLEDAIKKRREARERRRLRQNGTKENEIETLENTPEASETSLIENNSFTAAVDEETNADKETTASRSKRRSSRKKRTISIVTAEDKENTQEESTSQENGGAKVEEEVKSSSVEIINGSESKKKKPKLTVKIKLNKTTVLENNDGKRAEEKPESKSPAKKTAAKKTKTKSKSLGIFPTVEKLVEEMREQLDEVDSHPRTSIFEKLPSKRDYPDYFKVIEKPMAIDIILKNCKNGTYKTLEEVRQALQTMFENARFYNEEGSWVYVDADKLNEFTDEWFKEHSS
notes: Sth1, budding yeast, as it stands in the purified RSC complex; Present within m2 in the cross-linking experiment; also called RSC ATPase; source: subunit of RSC purified from budding yeast (TAP-tagged Rsc2)

Key:
Details in all cases: both partners purified
[1] = target: T1, Scc2 subunit of the cohesin loader (S. cerevisiae, UniProt Q04002 1-1493); assay: cross-linking; 0.5 uM cohesin loader and 0.5 uM RSC in CLMS buffer (22.5 mM HEPES-KOH pH 7.5, 75 mM NaCl, 100 mM potassium acetate, 10% glycerol, 0.5 mM TCEP), 1 mM DSSO 15 min 37 C, trypsin digest, tandem mass spectrometry; two biological repeats
T1 construct: Scc2, budding yeast, as it stands in the purified Scc2-Scc4 complex; Present within m1 in the cross-linking experiment; tags as told under m1; source: subunit of Scc2-Scc4 purified from budding yeast (overexpressed)
T1 sequence (looked up): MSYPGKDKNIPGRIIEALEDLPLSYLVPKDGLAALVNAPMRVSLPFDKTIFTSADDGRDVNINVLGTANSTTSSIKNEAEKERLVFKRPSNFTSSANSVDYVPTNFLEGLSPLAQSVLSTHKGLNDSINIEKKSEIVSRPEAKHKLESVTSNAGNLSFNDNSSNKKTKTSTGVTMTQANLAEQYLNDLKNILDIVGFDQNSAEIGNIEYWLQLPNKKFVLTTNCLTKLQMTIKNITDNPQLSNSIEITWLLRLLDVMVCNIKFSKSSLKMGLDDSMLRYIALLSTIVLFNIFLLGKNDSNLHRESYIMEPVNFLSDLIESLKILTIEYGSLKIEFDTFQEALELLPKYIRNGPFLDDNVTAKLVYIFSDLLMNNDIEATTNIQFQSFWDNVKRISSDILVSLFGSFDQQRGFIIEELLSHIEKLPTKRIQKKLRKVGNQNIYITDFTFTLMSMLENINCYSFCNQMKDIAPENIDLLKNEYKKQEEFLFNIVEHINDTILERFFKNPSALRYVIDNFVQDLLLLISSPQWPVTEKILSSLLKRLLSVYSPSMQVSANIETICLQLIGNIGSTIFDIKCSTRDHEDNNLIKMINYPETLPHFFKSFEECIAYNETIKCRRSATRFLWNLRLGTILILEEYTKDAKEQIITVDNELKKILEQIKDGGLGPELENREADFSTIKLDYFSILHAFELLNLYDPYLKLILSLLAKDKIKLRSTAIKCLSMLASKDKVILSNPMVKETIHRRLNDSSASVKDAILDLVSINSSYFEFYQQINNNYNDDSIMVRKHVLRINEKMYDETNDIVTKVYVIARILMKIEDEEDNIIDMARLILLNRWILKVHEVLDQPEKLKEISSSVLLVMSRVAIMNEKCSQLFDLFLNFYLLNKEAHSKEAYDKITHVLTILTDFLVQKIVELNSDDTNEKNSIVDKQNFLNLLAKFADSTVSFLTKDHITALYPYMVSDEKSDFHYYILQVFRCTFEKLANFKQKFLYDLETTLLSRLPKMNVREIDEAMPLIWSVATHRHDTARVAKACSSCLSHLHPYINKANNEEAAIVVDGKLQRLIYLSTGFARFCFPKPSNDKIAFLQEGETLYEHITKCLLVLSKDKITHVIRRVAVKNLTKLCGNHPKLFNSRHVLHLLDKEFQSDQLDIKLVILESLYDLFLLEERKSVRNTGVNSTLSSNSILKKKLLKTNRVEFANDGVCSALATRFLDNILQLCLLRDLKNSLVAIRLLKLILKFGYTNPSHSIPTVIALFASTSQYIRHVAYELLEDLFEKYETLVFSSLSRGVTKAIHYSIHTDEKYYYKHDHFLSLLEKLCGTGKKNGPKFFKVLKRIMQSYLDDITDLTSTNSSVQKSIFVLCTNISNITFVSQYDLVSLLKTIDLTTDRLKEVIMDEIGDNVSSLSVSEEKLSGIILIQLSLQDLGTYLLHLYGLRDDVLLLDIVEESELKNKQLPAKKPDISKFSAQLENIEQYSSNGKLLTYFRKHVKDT

[2] = target: T2, Scc2-Scc4 cohesin loader complex (S. cerevisiae, UniProt Q04002 1-1493; P40090 1-624); assay: co-IP; 50 nM Scc2-Scc4 and 50 nM RSC or Sth1 365-1097 mixed in IP buffer (25 mM Tris-HCl pH 7.5, 100 mM NaCl, 2.5 mM MgCl2, 0.2% Triton X-100, 5% glycerol, 0.5 mM TCEP), loader captured on anti-HA protein A magnetic beads, last wash 300 mM NaCl; Sth1 detected by immunoblotting
T2 construct: Scc2, cohesin loader subunit, budding yeast; Scc4, cohesin loader subunit, budding yeast; Purified by a protein A tag that was removed by 3C protease; also called 2-4

[3] = target: B1; assay: cross-linking; 0.5 uM cohesin loader and 0.5 uM RSC in CLMS buffer (22.5 mM HEPES-KOH pH 7.5, 75 mM NaCl, 100 mM potassium acetate, 10% glycerol, 0.5 mM TCEP), 1 mM DSSO 15 min 37 C, trypsin digest, tandem mass spectrometry; two biological repeats

Binder: B1
binding result [1]: binds

binding result [2]: binds
B2: Sth1 365-1097 fragment (ATPase motor module) (domain or fragment, S. cerevisiae, UniProt P32597 365-1097, looked up)
chain: DEQKRIERTAKQRLAALKSNDEEAYLKLLDQTKDTRITQLLRQTNSFLDSLSEAVRAQQNEAKILHGEEVQPITDEEREKTDYYEVAHRIKEKIDKQPSILVGGTLKEYQLRGLEWMVSLYNNHLNGILADEMGLGKTIQSISLITYLYEVKKDIGPFLVIVPLSTITNWTLEFEKWAPSLNTIIYKGTPNQRHSLQHQIRVGNFDVLLTTYEYIIKDKSLLSKHDWAHMIIDEGHRMKNAQSKLSFTISHYYRTRNRLILTGTPLQNNLPELWALLNFVLPKIFNSAKTFEDWFNTPFANTGTQEKLELTEEETLLIIRRLHKVLRPFLLRRLKKEVEKDLPDKVEKVIKCKLSGLQQQLYQQMLKHNALFVGAGTEGATKGGIKGLNNKIMQLRKICNHPFVFDEVEGVVNPSRGNSDLLFRVAGKFELLDRVLPKFKASGHRVLMFFQMTQVMDIMEDFLRMKDLKYMRLDGSTKTEERTEMLNAFNAPDSDYFCFLLSTRAGGLGLNLQTADTVIIFDTDWNPHQDLQAQDRAHRIGQKNEVRILRLITTDSVEEVILERAMQKLDIDGKVIQAGKFDNKSTAEEQEAFLRRLIESETNRDDDDKAELDDDELNDTLARSADEKILFDKIDKERMNQERADAKAQGLRVPPPRLIQLDELPKVFREDIEEHFKKEDSEPLGRIRQKKRVYYDDGLTEEQFLEAVEDDNMSLEDAIKKRREARERRRLRQ
notes: Cloned into pGEX-6P-2; also called Sth1 ATPase module; source: E. coli BL21 Star (DE3) pLysS, purified (glutathione-sepharose, 3C protease cleavage, Superdex 200)

binding result [3]: binds
B3: Scc4 subunit of the cohesin loader (natural protein, S. cerevisiae)
chain: MENLGDKLSISQVYHLAQEYRDHAYSIANKIGSEEGLKQYYGLMNMSIQMFQLLKTKCTLSVLEDSKVTFEMVELLIQETYNFDLAELYISSLKERLQTHQSDTDLVEEIMRCEFLLLHDLPLMRDSKFHYKIALRNCNELVQYMVNLQDELYQNWASVFQYVGVMLCIKLKQHRRVKTSFHGLLSQCREKSQWKWFLNLCYVNYLLNERFPIPEDALQELRSTELHTVGPELYAWKLALEMVIQLCKDGNITDHLNEFKNFFDTNKQSLVTNEGKGCVIKIMPRIALKVELPMIFHYKELKNILLLLQSVSYIVNCYDEKGNFSRKFLPKVYSTTQKLIKNIAAGGVSMNELDSRIQTYKSILEFCEFYKVWEQTLLKGAVVTTESPKLGPSPGYVRLLQAMKVQFEGGGAVEEYTRLAQSGGTSSEVKMISLLNCYTVQAARVSRCSGDKQGELVEQCNKVWLQVEKLLQETDLQFNPIWECTVTILWLFSHFEPFSWNPLPCSDKQRAEYVSKLREFYSSNKFVAGEAVADNRFKLKKALLLQILVNYLGGRMLEHDLGEIYAISAKCFDMCRQQGGMRKVQYVIGIWHLMNCTVAMRGKDVALTNAKLEALVKQITSVKQ
notes: Scc4, budding yeast, as it stands in the purified Scc2-Scc4 complex; Present within m1 in the cross-linking experiment; tags as told under m1; source: subunit of Scc2-Scc4 purified from budding yeast (overexpressed)
